{"source": "patent US9862971B2", "about": "(BUNDESREPUBLIK DEUTSCHLAND, LETZTVERTRETEN DURCH DEN …, dated 2018)", "binders": {"B1": {"name": "MeV HEdm wildtype (wt) protein (other)", "chain": "MSPQRDRINAFYKDNPHPKGSRIVINREHLMIDRPYVLLAVLFVMFLSLIGLLAIAGIRLHRAAIYTAEIHKSLSTNLDVTNSIEHQVKDVLTPLFKIIGDEVGLRTPQRFTDLVKFISDKIKFLNPDREYDFRDLTWCINPPERIKLDYDQYCADVAAEELMNALVNSTLLETRTTNQFLAVSKGNCSGPTTIRGQFSNMSLSLLDLYLGRGYNVSSIVTMTSQGMYGGTYLVEKPNLSSKRSELSQLSMYRVFEVGVIRNPGLGAPVFHMTNYLEQPVSNDLSNCMVALGELKLAALCHGEDSITIPYQGSGKGVSFQLVKLGVWKSPTDMQSWVPLSTDDPVIDRLYLSSHRGVIADNQAKWAVPTTRTDDKLRMETCFQQACKGKIQALCENPEWAPLKDNRIPSYGVLSVDLSLTVELKIKIASGFGPLITHGSGMDLYKSNHNNVYWLTIPPMKNLALGVINTLEWIPRFKVSPYLFTVPIKEAGGDCHAPTYLPAEVDGDVKLSSNLVILPGQDLQYVLATYDTSRVEHAVVYYVYSPSRSFSYFYPFRLPIKGVPIELQVECFTWDQKLWCRHFCVLADSESGGHITHSGMVGMGVSCTVTREDGTNRR"}}, "biological_target": "CD46 (human, UniProt P15529)", "assay": "cell-based or functional assay"}
{"binder": "B1", "values": [{"measurement": "titer [t.u./ml] of HIV-1 vector particles on 293T cells, concentrated supernatant", "value": 0, "unit": "t.u./ml"}, {"measurement": "titer [t.u./ml] of HIV-1 vector particles on U-87MG cells, concentrated supernatant", "value": 0, "unit": "t.u./ml"}]}
